Patent US20220235344A1, “TRYPSIN VARIANTS WITH IMPROVED ENZYMATIC PROPERTIES” (BIOPHARMA TRANSLATIONSINSTITUT DESSAU FORSCHUNGS GMBH, priority 2018, published 2022)
Where “and” joins values, the source holds several entries; their conditions need not be identical. Equal values may be shown once.

B1: A2C8: Trypsiligase II + H40F, A55A, R96E, K97D, L99F, N143E, E151Y, S190V, Q192A, S214G, G219Q, A221T (protein)
chain: IVGGYTCQENSVPYQVSLNSGHFFCGGSLINDQWVVSAAHCHESRIQVRLGEHNINVLEGNEQFVNAAKIIKHPNFDEDTFNNDIMLIKLSSPVKLNARVATVALPSSCAPAGTQCLISGWGETLSSGVNYPDLLQCLDAPLLPQADCEASYPGKITDNMVCVGFLEGGKKVCAGDSGGPVVCNGELQGIVGWGYQCTLPDNPGVYTKVCNYVDWIQDTIAAN
B2: Trypsiligase II (trypsin variant Y39H/Y59H/K60E/D189K) (protein)
chain: IVGGYTCQENSVPYQVSLNSGHHFCGGSLINDQWVVSAAHCHESRIQVRLGEHNINVLEGNEQFVNAAKIIKHPNFDRKTLNNDIMLIKLSSPVKLNARVATVALPSSCAPAGTQCLISGWGNTLSSGVNEPDLLQCLDAPLLPQADCEASYPGKITDNMVCVGFLEGGKKSCQGDSGGPVVCNGELQGIVSWGYGCALPDNPGVYTKVCNYVDWIQDTIAAN

Assays:
Type in all cases: biochemical
[1] = tested on: Bz-PGGYRAHAG-OH / RAHAK-OH (YRAH substrate); test: Enzymatic activity and maximum product yield of Trypsiligase II-library variants, YRAH substrate; details: for AS A[YRAH]/AS A + H[YRAH] / YRAH/YRKH, quotient of max. product yield for YRAH subtrate/YRKH substrate: Table 3; for Pmax vs YRAH (%): Table 3, first column group
Protocol: (§1) Model transamidation reactions were performed in a solution containing 15 to 250 μM acyl donor, 2 eq. of the corresponding acyl acceptor, varying concentrations of trypsin variant, 100 mM HEPES/NaOH pH 7.8, ±0.1 mM ZnC12, 100 mM NaCl, 10 mM CaCl2) at 30° C. Acyl donor and acyl acceptor had the same amino acids in P1′-P3′ position, e.g. Bz-[…]+H-RAHAK-OH or Bz-[…]+H-RKKAK-OH. Variations are indicated. The acyl acceptor could be equipped with a 2,4-Dinitrophenyl group (DNP) at the side chain of the terminal lysine, e.g. H-RAHAK(DNP)-OH or H-RKKAK(DNP)-OH. The reactions were started by the addition of enzyme. To record the time course of product formation and/or for kinetic evaluation of the reaction several aliquots of the reaction mixture were quenched with 25% (v/v) acetic acid at distinct time points within up to 4 hours. The composition of the reaction mixture was analyzed by UPCL with method I or II, depending on the absence (method 1) or presence (method II) of a 2,4-dinitrophenyl group within the acyl acceptor (see example 1). Measurements were performed as duplicates and errors were less than 5%.
(§2) On the basis of these investigations the mutated positions of these two variants 2G10 and 1C11 have been combined in a new enzyme library based on trypsin variant Y39H/Y59H/K60E/D189K (Trypsiligase II), so that the variants resulting from this library benefit from both positive effects and are thus further optimized. Accordingly, positions 40, 55, 96, 97, 143, 151, 190, 192, 214, 219 and 221 were randomized in this Trypsiligase II library, while the mutation L99F was fixed because it was present in both Trypsiligase I libraries A and B. Positions 143 and 151 in Trypsiligase I are responsible for zinc complexation and thus convey histidine specificity for the recognition sequence YRH. In Trypsiligase II, this histidine specificity is shifted by positions 39 and 59, resulting in the recognition sequence YRAH. Thus, positions 143 and 151, which are potentially responsible for P2′ position specificity, are available for randomization in the Trypsiligase II library. In addition to the desired effect of increasing the affinity to the substrate/nucleophile, this could also lead to a possible independence of zinc complexation, which would be desirable with regard to the application-oriented modification of recombinant proteins. Using phage display and an ELISA-based screening, the Trypsiligase II variants illustrated in Table 3 and 4 have been identified.

[2] = tested on: H-RAHAK(DNP)-OH (acyl acceptor), acyl donor Bz-PGGYRAHAG-OH; test: KM value of the nucleophilic peptide (acyl acceptor); details: for Km: Zinc ions: no, 250 μM Bz-PGGYRAHAG-OH, varying H-RAHAK(DNP)-OH
Protocol: (§3) For Trypsiligase II the measurements for KM values of the nucleophilic peptide (acyl acceptor) were carried out in the presence or absence of zinc ions due to its strong zinc ion dependency. In case of variant A2C8 measurements were carried out in the absence of zinc ions.
(§4) Transamidation reactions with Trypsiligase II and variant A2C8 were performed in a solution containing 250 μM of the acyl donor Bz-[…]-OH, varying concentrations of the acyl acceptor H-RAHAK(DNP)-OH (0-5000 μM for Trypsiligase II in the absence of zinc ions, 0-1500 μM for Trypsiligase II in the presence of zinc ions, 0-1000 μM for variant A2C8), 0.2-1.5 μM trypsin variant, 100 mM HEPES/NaOH pH 7.8, ±0.1 mM ZnCl2, 100 mM NaCl, 10 mM CaCl2 at 30° C. The reaction was started by the addition of enzyme. For kinetic evaluation of the reaction several aliquots of the reaction mixture were quenched with 25% (v/v) acetic acid at distinct time points within 30 minutes. The composition of the reaction mixture was analyzed by UPCL using method II (see example 1). UV absorption of the 2,4-Dinitrophenyl group (DNP), which is present in the acyl acceptor as well as in the aminolysis product, was detected at 360 nm. To determine the KM value of the nucleophilic peptide the initial rates for the aminolysis reaction were plotted against the corresponding acyl acceptor concentration and fitted to the Michaelis Menten equation. Measurements were performed as duplicates and errors were less than 5%.

[3] = tested on: Bz-PGGYRKHAG-OH / RKHAK-OH (YRKH substrate); test: Enzymatic activity and maximum product yield of Trypsiligase II-library variants, YRKH substrate; details: for PPmax vs YRAH (%): 100 μM Bz-PGGYR(A/K)HAG-OH, 200 μM R(A/K)HAK-OH, 100 μM ZnCl2, pH 7.8, 30° C.
Protocol: as §1, §2

[4] = tested on: Bz-PGGYRAHAG-OH (acyl donor) / H-RAHAK(DNP)-OH (acyl acceptor); test: Maximum product yield of transamidation (Table 7); details: Zinc ions (100 μM): no; two equivalents of acyl acceptor and 250 μM acyl donor
Protocol: as §1

[5] = biological target: T1, H-RAHAK(DNP)-OH (acyl acceptor), acyl donor Bz-PGGYRAHAG-OH (Rattus norvegicus, UniProt P00763, D194K/K66E/Y45H/Y65H); test: KM value of the nucleophilic peptide (acyl acceptor); details: Zinc ions (100 μM): yes; 250 μM Bz-PGGYRAHAG-OH, varying H-RAHAK(DNP)-OH
T1 construct: made in house; host or cells: Pichia pastoris X-33
T1 sequence (P00763 24-246 Y45H/Y65H/K66E/D194K): B2 chain
Protocol: as §3, §4

[6] = 100 μM Bz-PGGYR(A/K)HAG-OH, 200 μM R(A/K)HAK-OH, 100 μM ZnCl2, pH 7.8, 30° C.
[7] = Table 3, group (YRAH), 100 μM ZnCl2

Row | Molecule | AS A[YRAH]/AS A + H[YRAH] [1] | YRAH/YRKH, quotient of max. product yield for YRAH subtrate/YRKH substrate [1] | Pmax vs YRAH (%) [1, 6] [%] | AS A/H, quotient of aminolysis/hydrolysis activity ([1]; Table 3, group (YRAH)) | AS[AL] (mkat/mol), specific aminolysis activity [1, 7] [mkat/mol] | AS[HL] (mkat/mol), specific hydrolysis activity [1, 7] [mkat/mol] | Km [2] [µM] | AS A/H, quotient of aminolysis/hydrolysis activity ([3]; Table 3) | PPmax vs YRAH (%) ([3]; Table 3) | AS[AL] (mkat/moL), specific aminolysis activity ([3]; Table 3, 100 μM ZnCl2) [mkat/moL] | AS[HL] (mkat/moL), specific hydrolysis activity ([3]; Table 3, 100 μM ZnCl2) [mkat/moL] | product yield (%) [4] [%] | other results
1 | B1 | 1.6 | 1.0 | 53.1 | 10.9 | 15.8 | 1.5 | 17.6 | 6.9 | 51.3 | 8.9 | 1.3 | 59.7 | improvement of the enzyme affinity for the nucleophilic peptide versus native Trypsiligase II (factor) ([2]; Trypsiligase II in the absence of zinc ions): 92; improvement of the enzyme affinity for the nucleophilic peptide versus native Trypsiligase II (factor) ([2]; Trypsiligase II in the presence of zinc ions): 8
2 | B2 | 0.1 | 6.0 | 8.9 | 0.3 | 2.4 | 7.8 | 1630 | 0.0 | 1.5 | 0.5 | 16.3 | 4.2 | AS A/H, quotient of aminolysis/hydrolysis activity ([1]; Table 4): 0.3; PPmax vs YRAH (%) ([1]; Table 4, 100 μM Bz-PGGYR(A/K)HAG-OH, 200 μM R(A/K)HAK-OH, 100 μM ZnCl2, pH 7.8, 30° C.): 8.9%; AS[AL] (mkat/moL), specific aminolysis activity ([1]; Table 4, 100 μM ZnCl2): 2.4 mkat/moL; AS[HL] (mkat/moL), specific hydrolysis activity ([1]; Table 4, 100 μM ZnCl2): 7.8 mkat/moL; Km [5]: 143 µM and 144 µM; AS A/H, quotient of aminolysis/hydrolysis activity ([3]; Table 4): 0.0; AS A[YRAH]/AS A + H[YRAH] ([3]; Table 4): 0.0; YRAH/YRKH, quotient of max. product yield ([3]; Table 4): 0.2; PPmax vs YRAH (%) ([3]; Table 4): 1.5%; AS[AL] (mkat/mol), specific aminolysis activity ([3]; Table 4, 100 μM ZnCl2): 0.5 mkat/mol; AS[HL] (mkat/mol), specific hydrolysis activity ([3]; Table 4, 100 μM ZnCl2): 16.3 mkat/mol
